B1: BACE1: ß-site APP-cleaving enzyme-1, homolog of BACE2; recombinant enzyme or transfected cDNA (protein, UniProt P56817 46-501, looked up)
Beta-secretase 1: ETDEEPEEPGRRGSFVEMVDNLRGKSGQGYYVEMTVGSPPQTLNILVDTGSSNFAVGAAPHPFLHRYYQRQLSSTYRDLRKGVYVPYTQGKWEGELGTDLVSIPHGPNVTVRANIAAITESDKFFINGSNWEGILGLAYAEIARPDDSLEPFFDSLVKQTHVPNLFSLQLCGAGFPLNQSEVLASVGGSMIIGGIDHSLYTGSLWYTPIRREWYYEVIIVRVEINGQDLKMDCKEYNYDKSIVDSGTTNLRLPKKVFEAAVKSIKAASSTEKFPDGFWLGEQLVCWQAGTTPWNIFPVISLYLMGEVTNQSFRITILPQQYLRPVEDVATSQDDCYKFAISQSSTGTVMGAVIMEGFYVVFDRARKRIGFAVSACHVHDEFRTAAVEGPFVTLDMEDCGYNIPQTDESTLMTIAYVMAAICALFMLPLCLMVCQWRCLRCLRQQHDDFADDISLLK
B2: BACE2: ß-site APP-cleaving enzyme-2, aspartyl protease; recombinant enzyme (R&D Systems) or transfected human cDNA (protein, UniProt Q9Y5Z0 63-518, looked up)
Beta-secretase 2: ALEPALASPAGAANFLAMVDNLQGDSGRGYYLEMLIGTPPQKLQILVDTGSSNFAVAGTPHSYIDTYFDTERSSTYRSKGFDVTVKYTQGSWTGFVGEDLVTIPKGFNTSFLVNIATIFESENFFLPGIKWNGILGLAYATLAKPSSSLETFFDSLVTQANIPNVFSMQMCGAGLPVAGSGTNGGSLVLGGIEPSLYKGDIWYTPIKEEWYYQIEILKLEIGGQSLNLDCREYNADKAIVDSGTTLLRLPQKVFDAVVEAVARASLIPEFSDGFWTGSQLACWTNSETPWSYFPKISIYLRDENSSRSFRITILPQLYIQPMMGAGLNYECYRFGISPSTNALVIGATVMEGFYVIFDRAQKRVGFAASPCAEIAGAAVSEISGPFSTEDVASNCVPAQSLSEPILWIVSYALMSVCGAILLVLIVLLLLPFRCQRRPRDPEVVNDESSLVRHRWK

Experiments:
[1] = system: net Aß40 and Aß42 levels of CHO cells expressing APP-AP; test: Confirmation: co-transfection of BACE2 or BACE1 cDNA with APP-AP, Aß40 and Aß42 ELISA; type: cell-based; conditions: CHO cells co-transfected with APP-AP, 4 replicates, normalized to vector-only controls
Experimental: Figure 1 Overview and outcome of functional screening for novel Aß-lowering proteases. A, Cartoon illustrating the overall design of the screen. Briefly, an arrayed collection of 352 protease-encoding cDNAs was cotransfected into CHO cells together with an APP-AP fusion construct. Following a medium change and overnight incubation, Aß40 levels, AP activity, and cytotoxicity (via MTT assay) were analyized in the resulting conditioned media. B, Results of the screen, expressed as [Aß40]/AP ratios normalized to intraplate controls. Data are mean of 4 replicates. Note that the largest decrease in Aß levels by far was acheived by BACE2. C, Confirmation of the results of the screen. Following scale-up and sequence verification, cDNAs encoding BACE2 and its homolog, BACE1, were cotransfected together with APP-AP into CHO cells. […]
Aβ levels were quantified using a sandwich ELISA system based on antibody pairs 33.1.1/13.1.1 for Aβ40 and 2.1.3/4 G8 for Aβ42 as described previously. Conditioned media were supplemented with Complete^TM Protease Inhibitor Cocktail (Roche) just after collection and analyzed immediately. For experiments quantifying intracellular Aß, cells were plated in 96-well plates (2 x 10^4 cells per well) and transfected with BACE2-encoding cDNA or empty vector, washed, then incubated with 400 nM synthetic Aß for 6 h. […]

[2] = system: Aß (fluorescent substrate FAβB); test: Fluorescence polarization-based Aß degradation assay; type: biochemical; conditions: 37°C
Experimental: The kinetics of Aβ40 and Aβ42 degradation by BACE2 were determined using freshly prepared, monomeric Aβ peptides separated from aggregated species by size-exclusion chromatography and characterized as described. Aβ peptides were diluted in neutral Dilution Buffer (20 mM Tris, pH 8.0 supplemented with 0.1% BSA) and reactions were initiated by transfer into 20 times more volume of Assay Buffer supplemented with purified recombinant BACE2 (R&D Systems, nominal concentration 1 or 5 nM) or, as a control for non-specific loss of Aβ, the latter buffer lacking BACE2. Where required, reactions were terminated by supplementation with protease inhibitor cocktail and adjustment to neutral pH. For ELISA-based experiments, Aβ42 and Aβ40 were quantified using the sandwich ELISAs described above. […] For determination of the pH dependence of Aβ degradation, experiments were carried same as described above, using Assay Buffer at different pH values (3.0, 3.5, 4.0, 4.5, 5.0, 5.5). The reactions were stopped at 10 min and the remaining 200nM of Aβ was determined using a well-characterized fluorescence polarization-based activity Aß degradation assay, as described. […] The degree of Aβ hydrolysis was immediately determined using a polarization-based Aß degradation assay. […]

[3] = system: pre-formed fibrils of Aß42; test: Thioflavin T fluorescence of pre-formed Aß42 fibrils incubated with BACE2; type: biochemical; conditions: BACE2 10 nM, 37°C, up to 3 d / 5 d (legend Figure 2D), 3 replicates
Experimental: Figure 2 BACE2 degrades Aß in vitro. A, Percent Aß remaining following incubation with different concentrations of recombinant BACE2 for various lengths of time. Data are mean ± SEM of 4 replicates, normalized to protease-free controls. B, Comparison the relative Aß-degrading ability of recombinant BACE2 vs. BACE1. Note that 24 h incubation with BACE1 was required to achieve approximately the same extent of degradation as effected by BACE2 in 10 min. Data are mean ± SEM of 3 replicates, normalized to protease-free controls. C, BACE2 activity is pH dependent. Percent Aß degradation catalyzed by equivalent amounts of BACE2 at different pH values. Data are mean ± SEM of 4 replicates. […] Data are mean ± SEM of 3 replicates.
Individual AßDPs can be categorized in terms of their ability or inability to degrade fibrillar forms of Aß. Many well-established AßDPs, such as IDE and NEP, avidly degrade monomeric Aß but cannot degrade fibrillar forms and are therefore categorized as pure peptidases. Others, such as plasmin, degrade Aß fibrils and thus can also be categorized as fibrilases.

[4] = system: Aß40 levels produced by CHO cells co-transfected with human APP-AP; test: Functional cDNA screen for Aß-lowering proteases, co-transfection with APP-AP; type: cell-based, CHO cells (rodent cell line); conditions: protease cDNA 100 ng/well co-transfected with APP-AP 60 ng/well; 24 h conditioned medium; normalized to intra-plate controls; quadruplicate
Experimental: A library of 352 full-length, sequence verified, human cDNAs encoding diverse members of all protease classes was purchase from a commercial source (OriGene Technologies, Inc.) in 96-well format (100 ng/well). For negative and positive controls, a subset of blank wells on each plate were supplemented with empty vector or a construct expressing a well-established AßDP, human ECE1b, respectively (100 ng/well). As a source of human Aß and also as a transfection control, each well was cotransfected with a hybrid construct, APP-AP (60 ng/well), comprised of a vector expressing wild-type human APP fused at its N-terminus with alkaline phosphatase (AP). Additional blank wells were left untreated for cell-free background controls. […]
Following heat treatment to inactivate endogenous phosphatases (65°C for 15 min) present in the media, conditioned media (30 μL/well) was added to 96-well plates containing AP substrate, 4-nitrophenylphosphate (170 μL/well, 2 mg/mL), dissolved in AP buffer (1 M diethanolamine, 0.5 mM MgCl2, 10 mM L-homoarginine, pH 9.8). Plates were incubated for 30 min and AP activity was determined from absorbance (OD405) using a SpectraMax® M5^e multilabel plate reader (Molecular Devices).
Aβ levels were quantified using a sandwich ELISA system based on antibody pairs 33.1.1/13.1.1 for Aβ40 and 2.1.3/4 G8 for Aβ42 as described previously. […]

Row | Molecule | effect of overexpression on net Aß40 and Aß42 levels [1] | efficiency of Aß degradation, fold lower than that of BACE2 ([2]; BACE1 24 h vs BACE2 10 min for a similar extent of degradation, Assay Buffer pH 4.0) | effect on aggregation of pre-formed Aß42 fibrils [3] | pH of maximal Aß40 hydrolysis ([2]; Assay Buffer at pH 3.0, 3.5, 4.0, 4.5, 5.0, 5.5, 200 nM Aβ, stopped at 10 min, 4 replicates) | decrease in normalized Aß levels ([Aß40]/AP ratio) [4] [%]
1 | B1 | no effect | ~ 150 fold |  |  | 
2 | B2 | decreased the levels of both Aβ40 and Aβ42 |  | No significant reduction in aggregation | 3.5 | 97 ± 1.2

From paper PMC3470943, “Identification of BACE2 as an avid ß-amyloid-degrading protease” (Molecular Neurodegeneration, 2012)
